# Results published in patent publication US20200149021, “SYSTEM AND METHOD FOR GENOME EDITING” (INSTITUTE OF ZOOLOGY, CHINESE ACADEMY OF SCIENCES, published 2020).
# T1: PrCpf1 (Pseudobutyrivibrio ruminis)
# T1 chain: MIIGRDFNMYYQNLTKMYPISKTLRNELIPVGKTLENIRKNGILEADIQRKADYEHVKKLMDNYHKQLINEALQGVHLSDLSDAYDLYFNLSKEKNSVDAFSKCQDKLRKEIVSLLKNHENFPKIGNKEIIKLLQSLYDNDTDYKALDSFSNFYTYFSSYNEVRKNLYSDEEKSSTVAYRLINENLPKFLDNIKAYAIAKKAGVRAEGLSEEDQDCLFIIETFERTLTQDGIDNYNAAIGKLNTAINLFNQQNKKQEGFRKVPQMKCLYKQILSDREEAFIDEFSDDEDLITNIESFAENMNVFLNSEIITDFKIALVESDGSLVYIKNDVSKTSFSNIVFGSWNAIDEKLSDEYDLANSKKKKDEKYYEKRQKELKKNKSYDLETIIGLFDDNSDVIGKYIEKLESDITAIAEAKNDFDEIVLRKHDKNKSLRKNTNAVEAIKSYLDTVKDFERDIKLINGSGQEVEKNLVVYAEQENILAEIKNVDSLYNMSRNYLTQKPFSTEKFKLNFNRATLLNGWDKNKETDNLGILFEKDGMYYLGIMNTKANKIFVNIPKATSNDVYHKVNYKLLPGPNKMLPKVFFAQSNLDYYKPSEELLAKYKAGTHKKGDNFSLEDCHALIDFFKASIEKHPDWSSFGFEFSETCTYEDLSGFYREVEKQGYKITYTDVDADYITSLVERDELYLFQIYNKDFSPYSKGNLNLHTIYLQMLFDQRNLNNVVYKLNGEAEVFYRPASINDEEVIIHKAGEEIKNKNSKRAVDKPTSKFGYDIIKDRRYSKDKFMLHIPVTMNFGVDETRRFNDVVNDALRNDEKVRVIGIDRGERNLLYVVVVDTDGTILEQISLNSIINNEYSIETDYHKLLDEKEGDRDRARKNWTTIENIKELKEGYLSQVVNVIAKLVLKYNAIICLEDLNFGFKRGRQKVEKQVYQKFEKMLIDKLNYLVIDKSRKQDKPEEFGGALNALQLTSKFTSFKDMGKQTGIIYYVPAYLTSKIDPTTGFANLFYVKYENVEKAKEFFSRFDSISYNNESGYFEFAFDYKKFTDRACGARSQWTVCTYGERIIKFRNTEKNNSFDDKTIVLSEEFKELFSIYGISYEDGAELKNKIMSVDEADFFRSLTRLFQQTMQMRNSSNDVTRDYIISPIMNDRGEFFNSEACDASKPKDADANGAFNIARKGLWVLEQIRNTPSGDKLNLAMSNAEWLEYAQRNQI
# T2: PxCpf1 (Pseudobutyrivibrio xylanivorans)
# T2 chain: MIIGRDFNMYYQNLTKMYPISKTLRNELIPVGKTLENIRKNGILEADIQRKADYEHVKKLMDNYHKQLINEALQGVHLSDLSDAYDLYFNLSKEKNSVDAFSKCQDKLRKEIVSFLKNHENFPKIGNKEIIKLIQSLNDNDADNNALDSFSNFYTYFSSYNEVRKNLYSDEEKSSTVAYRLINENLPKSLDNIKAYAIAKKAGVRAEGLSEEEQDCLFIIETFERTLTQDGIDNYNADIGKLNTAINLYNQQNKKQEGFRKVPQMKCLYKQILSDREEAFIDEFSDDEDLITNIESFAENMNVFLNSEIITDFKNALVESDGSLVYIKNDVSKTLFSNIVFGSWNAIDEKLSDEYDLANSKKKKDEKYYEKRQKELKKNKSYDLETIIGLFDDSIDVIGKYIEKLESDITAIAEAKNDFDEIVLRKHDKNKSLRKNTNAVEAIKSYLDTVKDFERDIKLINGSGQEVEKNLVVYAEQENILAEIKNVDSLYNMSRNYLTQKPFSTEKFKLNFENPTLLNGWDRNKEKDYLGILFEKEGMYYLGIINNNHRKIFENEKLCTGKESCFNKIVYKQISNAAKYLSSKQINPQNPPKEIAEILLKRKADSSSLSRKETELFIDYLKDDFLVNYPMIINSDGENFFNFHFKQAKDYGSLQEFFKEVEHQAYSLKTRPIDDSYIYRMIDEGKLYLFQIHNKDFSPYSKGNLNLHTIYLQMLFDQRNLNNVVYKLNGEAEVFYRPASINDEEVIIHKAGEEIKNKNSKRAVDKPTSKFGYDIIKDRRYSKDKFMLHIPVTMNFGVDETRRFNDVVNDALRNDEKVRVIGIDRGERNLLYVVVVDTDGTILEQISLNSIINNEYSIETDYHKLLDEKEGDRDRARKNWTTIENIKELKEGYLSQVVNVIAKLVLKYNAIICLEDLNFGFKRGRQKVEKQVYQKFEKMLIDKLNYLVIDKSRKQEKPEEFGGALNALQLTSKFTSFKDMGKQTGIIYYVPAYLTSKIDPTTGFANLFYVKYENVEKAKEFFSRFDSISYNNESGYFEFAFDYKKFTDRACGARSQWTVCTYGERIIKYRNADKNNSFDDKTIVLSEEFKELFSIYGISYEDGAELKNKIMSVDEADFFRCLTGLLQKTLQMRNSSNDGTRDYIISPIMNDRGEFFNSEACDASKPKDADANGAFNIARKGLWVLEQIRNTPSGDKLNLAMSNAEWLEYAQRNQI
# B1: crRNA31 MeCP2 site 4 ; Mouse MeCP2 site 4 (ssRNA ; dsDNA)
# RNA: AUUUCUACUAUGGUAGAUGUGUCCAACCUUCAGGCAAGGUG
# DNA 1: TTTCGTGTCCAACCTTCAGGCAAGGTG
# DNA 2: CACCTTGCCTGAAGGTTGGACACGAAA
# What was measured:
# PrCpf1 = target: T1, PrCpf1; assay: cell_activity; PAM TTTC; (T)TTN; T7EI; conditions: tags: HA (2A-eGFP vector)
# Method: (§1) GFP-positive cells were sorted by FACS, lysed with Buffer L+ 1/100V Protease K (Biotool) at 55° C. for 30 min, inactivated at 95° C. for 5 min, and directly used for PCR detection. Appropriate primers were designed near the Cpf1 targeting site, and the amplified product was purified using DNA Clean & Concentrator™-5 kit (ZYMO Research). 200 ng of purified PCR product was added into 1 uL of NEBuffer2 (NEB) and diluted to 10 uL with ddH₂O. Then, heterodimers were formed by re-annealing according to the previously reported method (Li, W., et al., Simultaneous generation and germline transmission of multiple gene mutations in rat using CRISPR-Cas systems. Nat Biotechnol, 2013. 31(8): p. 684-6). The reannealed product was added with 0.3 uL of T7EI endnucelease and 1/10 V NEBuffer2 (NEB), and digested at 37° C. for 1 h 30 min. Genotype analysis was performed by 3% TAE-Gel electrophoresis. Indels were calculated according to the method reported in the previous article (Cong, L., et al., Multiplex genome engineering using CRISPR/Cas systems. Science, 2013. 339(6121): p. 819-23).
# (§2) The cells were transfected with Cpf1, crRNA31, and crRNA2 plasmids, and it was confirmed by PCR and T7EI analysis that crRNA31 can increase the editing efficiency of five Cpf1s of ArCpf1, BsCpf1, HkCpf1, PrCpf1, and PxCpf1 at the site MeCP2-4 by two folds (FIG. 13B).
# PxCpf1 = target: T2, PxCpf1; assay: cell_activity; PAM TTTC; (T)TTN; T7EI; conditions: tags: HA (2A-eGFP vector)
# Method: as §1, §2
binder,measurement,setting,value
B1,editing efficiency,PrCpf1,~2 fold vs crRNA2
same,editing efficiency,PxCpf1,~2 fold vs crRNA2
